Values quoted from earlier work, collected in PMC8353491.

Target: Ubc9 (Homo sapiens) (UniProt P63279)
Sequence of UniProt P63279 (P63279 2-158): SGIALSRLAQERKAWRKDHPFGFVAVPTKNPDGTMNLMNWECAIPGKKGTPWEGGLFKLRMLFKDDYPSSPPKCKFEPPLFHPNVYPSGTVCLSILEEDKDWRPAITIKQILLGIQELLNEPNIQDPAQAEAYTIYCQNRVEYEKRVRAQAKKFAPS

## SUMO1 (from UniProt P63165)
  Kd: 82 nM
